Results as given in patent publication US20180037644A1 (Pfizer, published 2018).
Substitutions are numbered along the chain they refer to.

T1: cynomolgus monkey IL-33 (cys mut) (cynomolgus monkey)
T1 chain: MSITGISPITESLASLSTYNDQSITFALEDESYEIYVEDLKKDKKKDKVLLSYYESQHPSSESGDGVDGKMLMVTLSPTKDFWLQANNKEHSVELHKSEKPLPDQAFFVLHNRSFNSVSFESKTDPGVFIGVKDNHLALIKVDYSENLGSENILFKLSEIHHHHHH

T2: human IL-33 (mm2) (human, UniProt O95760 112-270)
T2 chain: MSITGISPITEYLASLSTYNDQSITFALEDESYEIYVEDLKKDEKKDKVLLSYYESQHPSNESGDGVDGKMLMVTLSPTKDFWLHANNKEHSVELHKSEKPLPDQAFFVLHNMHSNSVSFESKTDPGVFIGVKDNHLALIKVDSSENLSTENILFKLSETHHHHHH

T3: human IL-33 WT (R&D) (human, UniProt O95760 112-270)
T3 sequence: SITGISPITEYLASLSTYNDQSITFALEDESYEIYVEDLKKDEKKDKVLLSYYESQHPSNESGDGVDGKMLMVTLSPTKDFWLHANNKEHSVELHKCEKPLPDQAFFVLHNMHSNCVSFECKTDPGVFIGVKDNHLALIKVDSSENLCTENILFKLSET

T4: native human IL-33 from human lung fibroblast (HFL-1) lysate (human, UniProt O95760 1-270, limits assumed)
T4 sequence (looked up): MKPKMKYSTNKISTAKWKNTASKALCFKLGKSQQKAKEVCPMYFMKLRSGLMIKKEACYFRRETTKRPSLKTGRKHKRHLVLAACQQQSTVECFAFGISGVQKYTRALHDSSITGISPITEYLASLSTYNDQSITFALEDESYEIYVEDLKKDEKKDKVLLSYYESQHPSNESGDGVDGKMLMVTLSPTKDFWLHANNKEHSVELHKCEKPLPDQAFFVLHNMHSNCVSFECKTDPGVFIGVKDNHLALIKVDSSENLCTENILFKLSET

B1: 14D8 chimera/hu J (antibody, human IgG1, kappa, V domains shown)
VH: EVQLVDSGGDQVQPGRSLKLSCVASGFIFKNYWMTWIRQVPGKGLEWIASITNSGGNTYYPDSVKGRFTISRDNAKDTLYLQMNSLRSEDTATYYCARDRRYNSGSPFAYWGQGTLVTVSS
VL: DIQLTQSPSTLPASLGERVTISCRTSQSINNNLCWYQQKPDGTVKRLIYSTSTLESGVPSRFSGSGSGTDYSLSISSLESQDFAMYYCLQYATYPWTFGQGTKVEIKR
notes: also called 14D8 huJseg
B2: 12F9 chimera (antibody, human IgG1, kappa, V domains shown)
VH: B1 VH with D6E, Q11L, A24T, I48V, S54T, N57A, A75S, K76E, D77N
VL: DIQLTQSPSTLAASLGERVTISCRASQSISNSLIWFQQKPDGTIKRLIYSSSTLESGVPSRFSGSGSGTDYSLSISSLESEDFAMYYCLQYATYPWTFGGGTKLELRR
notes: also called chimeric 12F9
B3: 30B11 chimera/hu J (antibody, human IgG1, kappa, V domains shown)
VH: QVKLLQSGAALVKPGASVKMSCATSGFSFTDYWVSWVKQSHGKGLEWIGEIYPNSGADNFNENFKGKATLTVDKSTSTAYMELSRLTSEDSAIYYCTRGPYYYSTQIIFAYWGQGTLVTVSS
VL: NIVMTQSPKSMSISVGDRVTMNCKASQNVGNNLAWYQQKPGQSPKLLIYYASNRYTGVPDRFTGGGYGTDFTLTINSVQAEDAAFYYCQRIYNSPPTFGGGTKVEIKR
notes: also called 30B11 hu Jseg
B4: 9B3 chimera (antibody, human IgG1, kappa)
heavy: EVQLVETGGGLVQPGRSLKLSCVASGFTFSNYWMYWIRQAPGMGLEWVSSINNDGGNTYYLDSVKGRFTISRNNAENTVYLQMNSLRSEDTATYYCAKGHYSYSSYSFSYWGQGTLVTVSSASTKGPSVFPLAPSSKSTSGGTAALGCLVKDYFPEPVTVSWNSGALTSGVHTFPAVLQSSGLYSLSSVVTVPSSSLGTQTYICNVNHKPSNTKVDKKVEPKSCDKTHTCPPCPAPEAAGAPSVFLFPPKPKDTLMISRTPEVTCVVVDVSHEDPEVKFNWYVDGVEVHNAKTKPREEQYNSTYRVVSVLTVLHQDWLNGKEYKCKVSNKALPAPIEKTISKAKGQPREPQVYTLPPSREEMTKNQVSLTCLVKGFYPSDIAVEWESNGQPENNYKTTPPVLDSDGSFFLYSKLTVDKSRWQQGNVFSCSVMHEALHNHYTQKSLSLSPGK
light: DIQMTQSPSVLSASVGDRVTLSCKASHNINKHLDWCQQKVGEAPKLLIYFTNNLQTGIPSRFSGSGSGTDYTLTISSLQPEDVATYFCFQYNSGWTFGGGTKLELKRTVAAPSVFIFPPSDEQLKSGTASVVCLLNNFYPREAKVQWKVDNALQSGNSQESVTEQDSKDSTYSLSSTLTLSKADYEKHKVYACEVTHQGLSSPVTKSFNRGEC
notes: also called chimeric 9B3
B5: IL33-11 (antibody, human IgG1, kappa, V domains shown)
VH: EVQLVESGGGLVQPGGSLRLSCAASGFTFSNYWMYWVRQAPGKGLEWVASITPNGGNTYYPDSVKGRFTISRDNAKNSLYLQMNSLRAEDTAVYYCARGHYYYTSYSLGYWGQGTLVTVSS
VL: DIQMTQSPSSLSASVGDRVTITCKASQNINKHLDWYQQKPGKAPKLLIYFTNNLQTGVPSRFSGSGSGTDFTLTISSLQPEDFATYYCFQYNNGWTFGGGTKVEIKR
B6: IL33-13 (antibody, human IgG1, kappa, V domains shown)
VH: B5 VH with N31S, Y102S, T104S, L108F, G109S
VL: B5 VL
B7: 30B11 CDR graft (antibody, human IgG1, kappa, V domains shown)
VH: EVQLVESGGGLVQPGGSLRLSCAASGFTFTDYWVSWVRQAPGKGLEWVAEIYPNSGADNFNENFKGRFTISRDNAKNSLYLQMNSLRAEDTAVYYCARGPYYYSTQIIFAYWGQGTLVTVSS
VL: DIQMTQSPSSLSASVGDRVTITCKASQNVGNNLAWYQQKPGKAPKLLIYYASNRYTGVPSRFSGSGSGTDFTLTISSLQPEDFATYYCQRIYNSPPTFGGGTKVEIKR
B8: 30B11 CDR graft_R71V (antibody, human IgG1, kappa, V domains shown)
VH: B7 VH with R72V
VL: B7 VL
B9: 9B3 CDR graft (antibody, human IgG1, kappa, V domains shown)
VH: B5 VH with T52N, P53N, N54D, P61L, Y102S, T104S, L108F, G109S
VL: B5 VL with Q27H, N93S
B10: IL33-158-152 (antibody, human IgG1, kappa)
heavy: EVQLVESGGGLVQPGGSLRLSCAASGFTFSSYWMYWVRQAPGKGLEWVAAITPNAGEDYYPESVKGRFTISRDNAKNSLYLQMNSLRAEDTAVYYCARGHYYYTSYSLGYWGQGTLVTVSSASTKGPSVFPLAPSSKSTSGGTAALGCLVKDYFPEPVTVSWNSGALTSGVHTFPAVLQSSGLYSLSSVVTVPSSSLGTQTYICNVNHKPSNTKVDKKVEPKSCDKTHTCPPCPAPEAAGAPSVFLFPPKPKDTLMISRTPEVTCVVVDVSHEDPEVKFNWYVDGVEVHNAKTKPREEQYNSTYRVVSVLTVLHQDWLNGKEYKCKVSNKALPAPIEKTISKAKGQPREPQVYTLPPSREEMTKNQVSLTCLVKGFYPSDIAVEWESNGQPENNYKTTPPVLDSDGSFFLYSKLTVDKSRWQQGNVFSCSVMHEALHNHYTQKSLSLSPG
light: DIQMTQSPSSLSASVGDRVTITCKASQNINKHLDWYQQKPGKAPKLLIYFTNNLQTGVPSRFSGSGSGTDFTLTISSLQPEDFATYYCFQYNQGWTFGGGTKVEIKRTVAAPSVFIFPPSDEQLKSGTASVVCLLNNFYPREAKVQWKVDNALQSGNSQESVTEQDSKDSTYSLSSTLTLSKADYEKHKVYACEVTHQGLSSPVTKSFNRGEC
B11: IL33-167-153 (antibody, human IgG1, kappa)
heavy: B10 heavy with A50S, E62D
light: B10 light with Q93N
B12: 30A1 chimera/hu J (antibody, human IgG1, kappa)
heavy: QVNLLQSGATLVKPGASMKMSCKASGYSFTDYWVSWVKQSHGKSLEWIGEIYPNSGANNFNKEFKDKATLTVDKSTSTAYMELTRLTSEDSAVYYCTRGPYYYSSQIIFAYWGQGTLVTVSSASTKGPSVFPLAPSSKSTSGGTAALGCLVKDYFPEPVTVSWNSGALTSGVHTFPAVLQSSGLYSLSSVVTVPSSSLGTQTYICNVNHKPSNTKVDKKVEPKSCDKTHTCPPCPAPEAAGAPSVFLFPPKPKDTLMISRTPEVTCVVVDVSHEDPEVKFNWYVDGVEVHNAKTKPREEQYNSTYRVVSVLTVLHQDWLNGKEYKCKVSNKALPAPIEKTISKAKGQPREPQVYTLPPSREEMTKNQVSLTCLVKGFYPSDIAVEWESNGQPENNYKTTPPVLDSDGSFFLYSKLTVDKSRWQQGNVFSCSVMHEALHNHYTQKSLSLSPGK
light: IIVMTQSPKSMSISVGDRVTMNCKASQNVGNNIAWYRQKPGQSPELLIYYASNRYTGVPDRFTGGGYGTDFTLTINSVQAEDAAFYYCQRIYNSPPTFGGGTKVEIKRTVAAPSVFIFPPSDEQLKSGTASVVCLLNNFYPREAKVQWKVDNALQSGNSQESVTEQDSKDSTYSLSSTLTLSKADYEKHKVYACEVTHQGLSSPVTKSFNRGEC
notes: also called 30A1 hu Jseg

Biological target: T1, cynomolgus monkey IL-33 (cys mut)
Experiment: cell-based or functional assay

In order of rising “% inhibition at 20 nM, HEK293 ST2 NFkB” value:
1. B2  3.6%
2. B1  11%
3. B4  35%

In the case of B3, the “IC50, HEK293 ST2 NFkB” value is reported as 0.11 nM.

Biological target: T1, cynomolgus monkey IL-33 (cys mut)
Experiment: cell-based or functional assay
Remark: another data set of the same source

In order of falling “IC50, HEK293 ST2 NFkB” value:
1. B6  7.65 nM
2. B5  0.204 nM

Biological target: T2, human IL-33 (mm2)
Experiment: cell-based or functional assay

In order of rising “IC50, HEK293 ST2 NFkB” value:
1. B5  0.09 nM
2. B6  0.22 nM

Biological target: T2, human IL-33 (mm2)
Experiment: cell-based or functional assay
Remark: another data set of the same source

In order of rising “IC50, HEK293 ST2 NFkB” value:
1. B8  0.278 nM
2. B7  0.368 nM
3. B9  0.52 nM

Biological target: T2, human IL-33 (mm2)
Experiment: cell-based or functional assay
Remark: another data set of the same source

In order of rising “IC50, HEK293 ST2 NFkB” value:
1. B3  0.028 nM
2. B1  2.03 nM
3. B2  2.71 nM

Each binder was assayed against T3, human IL-33 WT (R&D) (assay: cell-based or functional assay).

In order of falling “IC50, HEK293 ST2 NFkB” value:
1. B11  0.749 nM
2. B10  0.62 nM

Biological target: T2, human IL-33 (mm2)
Experiment: cell-based or functional assay
Remark: another data set of the same source

In order of falling “IC50, HEK293 ST2 NFkB” value:
1. B11  0.129 nM
2. B10  0.095 nM

The binders below were run against T4, native human IL-33 from human lung … (assay: cell-based or functional assay).

In order of rising “% inhibition 0.1 nM Ab, HEK293 ST2 NFkB” value:
1. B2  44.3%
2. B4  52.5%
3. B1  61.1%
4. B12  63.8%
5. B3  102%

In order of rising “% inhibition 1 nM Ab, HEK293 ST2 NFkB” value:
1. B2  82.6%
2. B4  96%
3. B12  98.5%
4. B1  99.6%
5. B3  109%

In order of falling “% inhibition 10 nM Ab, HEK293 ST2 NFkB” value:
1. B4  111%
2. B3  110%
3. B1  107%
4. B12  107%
5. B2  104%

Biological target: T1, cynomolgus monkey IL-33 (cys mut)
Experiment: SPR, IgG captured by anti-human Fc, IL-33 in solution
Protocol: (§1) Binding to human and cynomolgus monkey IL-33 was measured by surface plasmon resonance using a BIAcore T200 instrument. An anti-human Fc antibody was immobilized on a CM5 chip, and anti-IL-33 antibodies were captured.

B1: no binding (tested: 125 nM).
B2: no binding (tested: 125 nM).

In order of falling Kd:
1. B4  0.836 nM
2. B12  0.197 nM
3. B3  0.148 nM

Biological target: T2, human IL-33 (mm2)
Experiment: as above
Protocol: as §1

In order of rising Kd:
1. B3  0.367 nM
2. B1  0.394 nM
3. B2  0.408 nM
4. B4  0.457 nM
5. B12  0.54 nM
